Reference: paper PMC9947773, “Modeling C3 glomerulopathies: C3 convertase regulation on an extracellular matrix surface” (Frontiers in Immunology, 2022)

Target: T1, C3b (human, UniProt P01024 23-667; P01024 749-1663)
T1 construct: complement C3, human; beta chain of C3b; alpha' chain of C3b (alpha chain without C3a); Coated on MaxGel (ECM) in microtiter wells at 130 ug/ml; also called purified C3b; source: bought: Complement Technology Inc., purified
Experiment: C3 convertase formation assay (C3CFA), elution and western blot for Bb; C3b coated on MaxGel; FB + FD with Factor H or a Factor H variant as reactant (22.5 ug/ml), 10 min at 37°C; washed x3; eluted
Conditions: both partners purified

T1 sequence (P01024 23-667, chain 1 of 2): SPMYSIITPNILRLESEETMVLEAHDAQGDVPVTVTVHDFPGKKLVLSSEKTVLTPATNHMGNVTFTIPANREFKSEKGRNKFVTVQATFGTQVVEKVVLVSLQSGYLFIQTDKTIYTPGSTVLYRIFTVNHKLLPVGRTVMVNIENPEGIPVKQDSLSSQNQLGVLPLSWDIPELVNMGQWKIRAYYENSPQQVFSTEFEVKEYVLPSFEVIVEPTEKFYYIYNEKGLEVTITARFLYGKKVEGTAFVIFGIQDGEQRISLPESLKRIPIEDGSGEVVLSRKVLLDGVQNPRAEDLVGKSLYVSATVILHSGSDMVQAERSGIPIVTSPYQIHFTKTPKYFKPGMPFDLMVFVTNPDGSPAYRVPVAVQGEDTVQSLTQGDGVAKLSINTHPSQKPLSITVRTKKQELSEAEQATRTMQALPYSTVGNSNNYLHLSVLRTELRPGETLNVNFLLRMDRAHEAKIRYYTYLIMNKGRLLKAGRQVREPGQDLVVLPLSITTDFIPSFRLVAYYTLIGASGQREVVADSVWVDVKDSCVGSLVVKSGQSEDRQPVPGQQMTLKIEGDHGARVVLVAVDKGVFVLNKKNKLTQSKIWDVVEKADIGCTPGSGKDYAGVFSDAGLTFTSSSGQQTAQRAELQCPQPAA
T1 sequence (P01024 749-1663, chain 2 of 2): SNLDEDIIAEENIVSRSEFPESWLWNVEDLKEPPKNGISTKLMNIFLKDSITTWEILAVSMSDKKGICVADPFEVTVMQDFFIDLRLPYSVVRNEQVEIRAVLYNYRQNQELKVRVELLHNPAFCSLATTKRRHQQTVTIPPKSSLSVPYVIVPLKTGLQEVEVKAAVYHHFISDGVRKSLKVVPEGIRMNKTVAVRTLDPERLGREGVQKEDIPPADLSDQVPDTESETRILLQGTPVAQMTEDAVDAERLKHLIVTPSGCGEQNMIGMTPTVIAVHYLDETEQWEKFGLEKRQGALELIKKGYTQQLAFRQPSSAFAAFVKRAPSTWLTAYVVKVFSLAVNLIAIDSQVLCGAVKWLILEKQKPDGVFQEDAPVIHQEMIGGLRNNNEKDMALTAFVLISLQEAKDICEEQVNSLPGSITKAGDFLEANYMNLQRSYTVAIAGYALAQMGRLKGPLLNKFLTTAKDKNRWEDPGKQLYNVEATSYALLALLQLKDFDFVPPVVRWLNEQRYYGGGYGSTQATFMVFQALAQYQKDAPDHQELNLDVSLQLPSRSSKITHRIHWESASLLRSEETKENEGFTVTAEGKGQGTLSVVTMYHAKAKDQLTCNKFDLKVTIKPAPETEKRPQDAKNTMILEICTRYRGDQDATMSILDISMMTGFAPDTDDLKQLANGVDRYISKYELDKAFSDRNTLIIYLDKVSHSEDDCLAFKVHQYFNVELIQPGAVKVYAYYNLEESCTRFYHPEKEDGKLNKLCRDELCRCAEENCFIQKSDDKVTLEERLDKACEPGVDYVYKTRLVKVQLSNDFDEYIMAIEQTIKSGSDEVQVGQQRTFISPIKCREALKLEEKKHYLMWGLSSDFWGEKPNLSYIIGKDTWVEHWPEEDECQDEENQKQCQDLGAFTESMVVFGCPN

B1: Factor H (natural protein, human, UniProt P08603 19-1231, looked up)
chain: EDCNELPPRRNTEILTGSWSDQTYPEGTQAIYKCRPGYRSLGNVIMVCRKGEWVALNPLRKCQKRPCGHPGDTPFGTFTLTGGNVFEYGVKAVYTCNEGYQLLGEINYRECDTDGWTNDIPICEVVKCLPVTAPENGKIVSSAMEPDREYHFGQAVRFVCNSGYKIEGDEEMHCSDDGFWSKEKPKCVEISCKSPDVINGSPISQKIIYKENERFQYKCNMGYEYSERGDAVCTESGWRPLPSCEEKSCDNPYIPNGDYSPLRIKHRTGDEITYQCRNGFYPATRGNTAKCTSTGWIPAPRCTLKPCDYPDIKHGGLYHENMRRPYFPVAVGKYYSYYCDEHFETPSGSYWDHIHCTQDGWSPAVPCLRKCYFPYLENGYNQNYGRKFVQGKSIDVACHPGYALPKAQTTVTCMENGWSPTPRCIRVKTCSKSSIDIENGFISESQYTYALKEKAKYQCKLGYVTADGETSGSITCGKDGWSAQPTCIKSCDIPVFMNARTKNDFTWFKLNDTLDYECHDGYESNTGSTTGSIVCGYNGWSDLPICYERECELPKIDVHLVPDRKKDQYKVGEVLKFSCKPGFTIVGPNSVQCYHFGLSPDLPICKEQVQSCGPPPELLNGNVKEKTKEEYGHSEVVEYYCNPRFLMKGPNKIQCVDGEWTTLPVCIVEESTCGDIPELEHGWAQLSSPPYYYGDSVEFNCSESFTMIGHRSITCIHGVWTQLPQCVAIDKLKKCKSSNLIILEEHLKNKKEFDHNSNIRYRCRGKEGWIHTVCINGRWDPEVNCSMAQIQLCPPPPQIPNSHNMTTTLNYRDGEKVSVLCQENYLIQEGEEITCKDGRWQSIPLCVEKIPCSQPPQIEHGTINSSRSSQESYAHGTKLSYTCEGGFRISEENETTCYMGKWSSPPQCEGLPCKSPPEISHGVVAHMSDSYQYGEEVTYKCFEGFGIDGPAIAKCLGEKWSHPPSCIKTDCLSLPSFENAIPMGEKKDVYKAGEQVTYTCATYYKMDGASNVTCINSRWTGRPTCRDTSCVNPPTVQNAYIVSRQMSKYPSGERVRYQCRSPYEMFGDEEVMCLNGNWTEPPQCKDSTGKCGPPPPIDNGDITSFPLSVYAPASSVEYQCQNLYQLEGNKRITCRNGQWSEPPKCLHPCVISREIMENYNIALRWTAKQKLYSRTGESVEFVCKRGYRLSSRSHTLRTTCWDGKLEYPTCAKR
notes: complement factor H, human; Used at 22.5 ug/ml; also called FH; WT FH; source: bought: Complement Technology Inc
binding result: binds
